The source of these data is patent US20080187543A1.

The assay deals with Recombinant myostatin. Description: cell-based or functional assay.

Consider “350 protein (amino acids 267-350 of bovine myostatin) (from UniProt O18836 267-350)”, for which the macrophage migration towards ZAMS medium (Boyden-type chemotaxis chamber), 5 µg/ml myostatin with 350 protein at 10 and 25 µg/ml came to 20 fold.
